Measured values as given in patent US20080292619.

Target: recombinant human IGF-BP3 (GT2675 produced by GT) (UniProt P17936)
Sequence (P17936 28-291): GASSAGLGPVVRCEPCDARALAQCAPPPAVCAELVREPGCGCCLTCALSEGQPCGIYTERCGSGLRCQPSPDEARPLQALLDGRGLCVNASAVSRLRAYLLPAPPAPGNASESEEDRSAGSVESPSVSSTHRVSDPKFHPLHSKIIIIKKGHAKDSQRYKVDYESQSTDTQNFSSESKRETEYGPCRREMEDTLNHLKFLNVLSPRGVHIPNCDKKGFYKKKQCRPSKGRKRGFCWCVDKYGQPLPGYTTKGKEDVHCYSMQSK

human meltrin α-STFLAG after cleavage of the prodomain with thrombin (mature meltrin α having the prodomain deleted, 68 kDa)
digestion of rhIGF-BP3 by meltrin α (SDS-PAGE and western blotting of rhIGF-BP3): the band corresponding to rhIGF-BP3 disappeared in the case of the meltrin α having the prodomain cleaved
